Consider 21 substances from patent publication US20230192789A1, “STRUCTURALLY-STABILIZED AND HDMX-SELECTIVE P53 PEPTIDES AND USES THEREOF” (Dana-Farber Cancer Institute, Inc., priority 2020, published 2023).

Bridges are numbered along the chain shown (N, C = ends). Where no end group is shown, it is not given here. [ ]: non-standard residue; d: D form. The star is where a group is joined. Biotin = O=C1N[C@H]2[C@H](CS[C@H]2CCCCC(=O)*)N1; R8 = C=CCCCCCC[C@@](C)(N)C(=O)O; Cba = N[C@@H](CC1CCC1)C(=O)O; S5 = C=CCCC[C@](C)(N)C(=O)O

For one assay, the target named is T1, recombinant HDMX (amino acids 1-490 of SEQ ID NO:104) (Homo sapiens, UniProt O15151).
T1 construct: thioredoxin (N, cleaved yes); S tag (N, cleaved yes); hexahistidine (N, cleaved yes); made in house; host or cells: E. coli (inferred: pET32-LIC vector, handled as described for HDM2 in BL21(DE3))
T1 sequence (O15151 1-490): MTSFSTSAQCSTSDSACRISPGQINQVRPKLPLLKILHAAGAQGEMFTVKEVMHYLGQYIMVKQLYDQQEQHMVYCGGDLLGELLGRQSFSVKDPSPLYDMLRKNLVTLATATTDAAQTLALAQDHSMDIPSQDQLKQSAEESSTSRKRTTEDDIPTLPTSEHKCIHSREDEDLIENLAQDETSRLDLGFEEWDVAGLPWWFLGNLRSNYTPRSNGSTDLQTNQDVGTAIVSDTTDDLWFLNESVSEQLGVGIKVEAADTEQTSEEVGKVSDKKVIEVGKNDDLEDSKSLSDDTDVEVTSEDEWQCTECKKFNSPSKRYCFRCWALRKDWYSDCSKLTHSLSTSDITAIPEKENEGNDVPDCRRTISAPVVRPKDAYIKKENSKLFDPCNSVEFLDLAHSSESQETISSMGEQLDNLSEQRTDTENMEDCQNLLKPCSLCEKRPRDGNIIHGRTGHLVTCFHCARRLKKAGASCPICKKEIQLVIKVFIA
Description: Competitive streptavidin pull-down of biotinylated peptides with 1:1 recombinant HDM2/HDMX mixture, HDMX western. It counts as binding. Particulars: biotinylated stapled peptide, 1:1 mixture of recombinant HDM2 and HDMX.
In the case of “ATSP-7041 B26N (Biotin-LTF[R8]EYWAQN[S5]SAA-NH2; staple 4-11; SMILES CC(C)C[C@H](NC(=O)CCCC[C@@H]1SC[C@@H]2NC(=O)N[C@@H]21)C(=O)N[C@H](C(=O)N[C@@H](Cc1ccccc1)C(=O)N[C@]1(C)CCCCCCC=CCCC[C@@](C)(C(=O)N[C@@H](CO)C(=O)N[C@@H](C)C(=O)N[C@@H](C)C(N)=O)NC(=O)[C@H](CC(N)=O)NC(=O)[C@H](CCC(N)=O)NC(=O)[C@H](C)NC(=O)[C@H](Cc2c[nH]c3ccccc23)NC(=O)[C@H](Cc2ccc(O)cc2)NC(=O)[C@H](CCC(=O)O)NC1=O)[C@@H](C)O)”, the “HDMX versus HDM2 binding selectivity” value was “HDMX selectivity over HDM2”.
In the case of “SAH-p53-4 L25R: Formula (I) stapled peptide: [Xaa]w LSQETF, [Xaa]x DLWKRL, [Xaa]y EN (LSQETF[R8]DLWKRL[S5]EN-NH2; staple 7-14; not fully specified)”, the “HDMX versus HDM2 binding selectivity” value is “dual selectivity to HDMX and HDM2”.
As to “SAH-p53-4 D21A: Formula (I) stapled peptide: [Xaa]w LSQETF, [Xaa]x ALWKLL, [Xaa]y EN (LSQETF[R8]ALWKLL[S5]EN-NH2; staple 7-14; not fully specified (N-terminus))”, the “HDMX versus HDM2 binding selectivity” value is listed as “HDMX selectivity over HDM2”.
The same measure, in the same setting: next, “ATSP-7041 B26W (Biotin-LTF[R8]EYWAQW[S5]SAA-NH2; staple 4-11; SMILES CC(C)C[C@H](NC(=O)CCCC[C@@H]1SC[C@@H]2NC(=O)N[C@@H]21)C(=O)N[C@H](C(=O)N[C@@H](Cc1ccccc1)C(=O)N[C@]1(C)CCCCCCC=CCCC[C@@](C)(C(=O)N[C@@H](CO)C(=O)N[C@@H](C)C(=O)N[C@@H](C)C(N)=O)NC(=O)[C@H](Cc2c[nH]c3ccccc23)NC(=O)[C@H](CCC(N)=O)NC(=O)[C@H](C)NC(=O)[C@H](Cc2c[nH]c3ccccc23)NC(=O)[C@H](Cc2ccc(O)cc2)NC(=O)[C@H](CCC(=O)O)NC1=O)[C@@H](C)O)”: “HDMX selectivity over HDM2”.
Take “SAH-p53-4 D21E: Formula (I) stapled peptide: [Xaa]w LSQETF, [Xaa]x ELWKLL, [Xaa]y EN (LSQETF[R8]ELWKLL[S5]EN-NH2; staple 7-14; not fully specified (N-terminus))”: the “HDMX versus HDM2 binding selectivity” value was “dual selectivity to HDMX and HDM2”.
For “ATSP-7041 B26G (Biotin-LTF[R8]EYWAQG[S5]SAA-NH2; staple 4-11; SMILES CC(C)C[C@H](NC(=O)CCCC[C@@H]1SC[C@@H]2NC(=O)N[C@@H]21)C(=O)N[C@H](C(=O)N[C@@H](Cc1ccccc1)C(=O)N[C@]1(C)CCCCCCC=CCCC[C@@](C)(C(=O)N[C@@H](CO)C(=O)N[C@@H](C)C(=O)N[C@@H](C)C(N)=O)NC(=O)CNC(=O)[C@H](CCC(N)=O)NC(=O)[C@H](C)NC(=O)[C@H](Cc2c[nH]c3ccccc23)NC(=O)[C@H](Cc2ccc(O)cc2)NC(=O)[C@H](CCC(=O)O)NC1=O)[C@@H](C)O)”, the “HDMX versus HDM2 binding selectivity” value is “HDMX selectivity over HDM2”.
On the same count and under the same terms, next, “SAH-p53-4 L14E: Formula (I) stapled peptide: [Xaa]w ESQETF, [Xaa]x DLWKLL, [Xaa]y EN (ESQETF[R8]DLWKLL[S5]EN-NH2; staple 7-14; also: biotinylated)”: “selectivity to HDM2”.
The same measure, in the same setting: next, “SAH-p53-4 S15R: Formula (I) stapled peptide: [Xaa]w LRQETF, [Xaa]x DLWKLL, [Xaa]y EN (LRQETF[R8]DLWKLL[S5]EN-NH2; staple 7-14; not fully specified)”: “selectivity to HDM2”; “SAH-p53-4 E17R: Formula (I) stapled peptide: [Xaa]w LSQRTF, [Xaa]x DLWKLL, [Xaa]y EN (LSQRTF[R8]DLWKLL[S5]EN-NH2; staple 7-14; not fully specified (N-terminus))”: “dual selectivity to HDMX and HDM2”; “SAH-p53-4 T18E: Formula (I) stapled peptide: [Xaa]w LSQEEF, [Xaa]x DLWKLL, [Xaa]y EN (LSQEEF[R8]DLWKLL[S5]EN-NH2; staple 7-14; not fully specified)”: “dual selectivity to HDMX and HDM2”.
In the case of “LTF8EYWEQBXEAA (LTF[R8]EYWEQ[Cba][S5]EAA-NH2; staple 4-11; not fully specified (N-terminus); printed as LTF8EYWEQBXEAA) [ATSP-7041 A24E/S28E]”, the “HDMX versus HDM2 binding selectivity” value is listed as “restored dual HDM2/HDMX binding selectivity”.
Regarding “SAH-p53-4 E28R: Formula (I) stapled peptide: [Xaa]w LSQETF, [Xaa]x DLWKLL, [Xaa]y RN (LSQETF[R8]DLWKLL[S5]RN-NH2; staple 7-14; not fully specified (N-terminus))”, the “HDMX versus HDM2 binding selectivity” value was “dual selectivity to HDMX and HDM2”.
For “SAH-p53-4 N29E: Formula (I) stapled peptide: [Xaa]w LSQETF, [Xaa]x DLWKLL, [Xaa]y EE (LSQETF[R8]DLWKLL[S5]EE-NH2; staple 7-14; not fully specified)”, the “HDMX versus HDM2 binding selectivity” value is “dual selectivity to HDMX and HDM2”.
As to “ATSP-7041 B26S (Biotin-LTF[R8]EYWAQS[S5]SAA-NH2; staple 4-11; SMILES CC(C)C[C@H](NC(=O)CCCC[C@@H]1SC[C@@H]2NC(=O)N[C@@H]21)C(=O)N[C@H](C(=O)N[C@@H](Cc1ccccc1)C(=O)N[C@]1(C)CCCCCCC=CCCC[C@@](C)(C(=O)N[C@@H](CO)C(=O)N[C@@H](C)C(=O)N[C@@H](C)C(N)=O)NC(=O)[C@H](CO)NC(=O)[C@H](CCC(N)=O)NC(=O)[C@H](C)NC(=O)[C@H](Cc2c[nH]c3ccccc23)NC(=O)[C@H](Cc2ccc(O)cc2)NC(=O)[C@H](CCC(=O)O)NC1=O)[C@@H](C)O)”, the “HDMX versus HDM2 binding selectivity” value is on record as “HDMX selectivity over HDM2”.
Still for that read-out and setting: for “ATSP-7041 B26Y (Biotin-LTF[R8]EYWAQY[S5]SAA-NH2; staple 4-11; SMILES CC(C)C[C@H](NC(=O)CCCC[C@@H]1SC[C@@H]2NC(=O)N[C@@H]21)C(=O)N[C@H](C(=O)N[C@@H](Cc1ccccc1)C(=O)N[C@]1(C)CCCCCCC=CCCC[C@@](C)(C(=O)N[C@@H](CO)C(=O)N[C@@H](C)C(=O)N[C@@H](C)C(N)=O)NC(=O)[C@H](Cc2ccc(O)cc2)NC(=O)[C@H](CCC(N)=O)NC(=O)[C@H](C)NC(=O)[C@H](Cc2c[nH]c3ccccc23)NC(=O)[C@H](Cc2ccc(O)cc2)NC(=O)[C@H](CCC(=O)O)NC1=O)[C@@H](C)O)” the value was “HDMX selectivity over HDM2”; for “SAH-p53-4 L22E: Formula (I) stapled peptide: [Xaa]w LSQETF, [Xaa]x DEWKLL, [Xaa]y EN (LSQETF[R8]DEWKLL[S5]EN-NH2; staple 7-14; also: biotinylated)”, “dual selectivity to HDMX and HDM2”; for “ATSP-7041 B26Q (Biotin-LTF[R8]EYWAQQ[S5]SAA-NH2; staple 4-11; SMILES CC(C)C[C@H](NC(=O)CCCC[C@@H]1SC[C@@H]2NC(=O)N[C@@H]21)C(=O)N[C@H](C(=O)N[C@@H](Cc1ccccc1)C(=O)N[C@]1(C)CCCCCCC=CCCC[C@@](C)(C(=O)N[C@@H](CO)C(=O)N[C@@H](C)C(=O)N[C@@H](C)C(N)=O)NC(=O)[C@H](CCC(N)=O)NC(=O)[C@H](CCC(N)=O)NC(=O)[C@H](C)NC(=O)[C@H](Cc2c[nH]c3ccccc23)NC(=O)[C@H](Cc2ccc(O)cc2)NC(=O)[C@H](CCC(=O)O)NC1=O)[C@@H](C)O)”, “HDMX selectivity over HDM2”.
Regarding “SAH-p53-4 Q16A: Formula (I) stapled peptide: [Xaa]w LSAETF, [Xaa]x DLWKLL, [Xaa]y EN (LSAETF[R8]DLWKLL[S5]EN-NH2; staple 7-14; not fully specified)”, the “HDMX versus HDM2 binding selectivity” value is “dual selectivity to HDMX and HDM2”.
Same read-out and setting: for “SAH-p53-4 T18A: Formula (I) stapled peptide: [Xaa]w LSQEAF, [Xaa]x DLWKLL, [Xaa]y EN (LSQEAF[R8]DLWKLL[S5]EN-NH2; staple 7-14; not fully specified)” the value was “dual selectivity to HDMX and HDM2”; for “ATSP-7041 B26T (Biotin-LTF[R8]EYWAQT[S5]SAA-NH2; staple 4-11; SMILES CC(C)C[C@H](NC(=O)CCCC[C@@H]1SC[C@@H]2NC(=O)N[C@@H]21)C(=O)N[C@H](C(=O)N[C@@H](Cc1ccccc1)C(=O)N[C@]1(C)CCCCCCC=CCCC[C@@](C)(C(=O)N[C@@H](CO)C(=O)N[C@@H](C)C(=O)N[C@@H](C)C(N)=O)NC(=O)[C@H]([C@@H](C)O)NC(=O)[C@H](CCC(N)=O)NC(=O)[C@H](C)NC(=O)[C@H](Cc2c[nH]c3ccccc23)NC(=O)[C@H](Cc2ccc(O)cc2)NC(=O)[C@H](CCC(=O)O)NC1=O)[C@@H](C)O)”, “HDMX selectivity over HDM2”.
Take “LTF8EYWAQBXSAA [ATSP-7041, reference compound]”: the “HDMX versus HDM2 binding selectivity” value was “dual-HDM2/HDMX targeting”.

The same assay, now with this note: biotinylated stapled peptide, 1:1 mixture of recombinant HDM2 and HDMX, listed as SEQ ID NO:8.
As for “SAH-p53-4 D21A: Formula (I) stapled peptide: [Xaa]w LSQETF, [Xaa]x ALWKLL, [Xaa]y EN (LSQETF[R8]ALWKLL[S5]EN-NH2; staple 7-14; not fully specified (N-terminus))”, the “HDMX versus HDM2 binding selectivity” value is given as “selectivity to HDMX”.

The same assay, now with this note: biotinylated stapled peptide, 1:1 mixture of recombinant HDM2 and HDMX, listed as SEQ ID NO:61.
As to “ATSP-7041 B26G (Biotin-LTF[R8]EYWAQG[S5]SAA-NH2; staple 4-11; SMILES CC(C)C[C@H](NC(=O)CCCC[C@@H]1SC[C@@H]2NC(=O)N[C@@H]21)C(=O)N[C@H](C(=O)N[C@@H](Cc1ccccc1)C(=O)N[C@]1(C)CCCCCCC=CCCC[C@@](C)(C(=O)N[C@@H](CO)C(=O)N[C@@H](C)C(=O)N[C@@H](C)C(N)=O)NC(=O)CNC(=O)[C@H](CCC(N)=O)NC(=O)[C@H](C)NC(=O)[C@H](Cc2c[nH]c3ccccc23)NC(=O)[C@H](Cc2ccc(O)cc2)NC(=O)[C@H](CCC(=O)O)NC1=O)[C@@H](C)O)”, the “HDMX versus HDM2 binding selectivity” value was “selectivity to HDMX”.

The assay is the same for the next values; noted with them: biotinylated stapled peptide, 1:1 mixture of recombinant HDM2 and HDMX, listed as SEQ ID NO:81.
For “LTF8EYWEQBXEAA (LTF[R8]EYWEQ[Cba][S5]EAA-NH2; staple 4-11; not fully specified (N-terminus); printed as LTF8EYWEQBXEAA) [ATSP-7041 A24E/S28E]”, the “HDMX versus HDM2 binding selectivity” value was “dual-selectivity to HDMX and HDM2”.
